Data on one molecule can be found in EP4663659A1 (Merck Patent GmbH, dated 2025).

This assay has as its target T1, mouse CD40 (mouse, UniProt P27512 20-193, limits assumed).
T1 construct: also called mCD40
T1 sequence (looked up): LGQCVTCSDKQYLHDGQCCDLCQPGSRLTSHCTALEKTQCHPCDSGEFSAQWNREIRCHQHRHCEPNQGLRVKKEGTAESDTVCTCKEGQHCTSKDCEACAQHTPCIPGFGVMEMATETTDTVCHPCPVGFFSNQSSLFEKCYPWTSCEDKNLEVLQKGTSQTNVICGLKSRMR
Kind of assay: not described; the molecule was used as isotype control in mice.

B1: Fusion protein 1 (FP1), anti-MUC-1 × anti-CD40 bispecific binding protein (bispecific antibody, human IgG1, lambda, L234A L235A)
heavy: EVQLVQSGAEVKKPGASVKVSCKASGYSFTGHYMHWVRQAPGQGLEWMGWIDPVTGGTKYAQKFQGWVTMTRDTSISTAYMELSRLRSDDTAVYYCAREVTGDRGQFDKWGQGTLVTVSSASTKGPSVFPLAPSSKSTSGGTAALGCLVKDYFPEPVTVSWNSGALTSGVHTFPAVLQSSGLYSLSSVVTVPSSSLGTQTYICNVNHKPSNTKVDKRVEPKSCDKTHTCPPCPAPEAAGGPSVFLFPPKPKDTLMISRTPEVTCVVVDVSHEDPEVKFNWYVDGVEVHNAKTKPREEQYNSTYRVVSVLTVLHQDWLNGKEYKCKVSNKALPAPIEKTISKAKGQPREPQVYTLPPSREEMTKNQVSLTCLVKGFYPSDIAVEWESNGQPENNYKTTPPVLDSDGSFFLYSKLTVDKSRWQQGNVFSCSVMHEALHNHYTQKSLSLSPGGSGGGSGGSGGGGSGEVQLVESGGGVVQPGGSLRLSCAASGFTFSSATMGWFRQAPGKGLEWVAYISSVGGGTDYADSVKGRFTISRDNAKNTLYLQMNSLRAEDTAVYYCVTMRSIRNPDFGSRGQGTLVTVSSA
light: SYVLTQPPSVSVAPGKTARITCGGNNIGSKSVHWYQQKPGQAPVLVIYYGSNRPSGIPERFSGSNSGNTATLTISRVEAGDEADYYCQVWDSSSDWVFGGGTKLTVLGQPKAAPSVTLFPPSSEELQANKATLVCLISDFYPGAVTVAWKADSSPVKAGVETTTPSKQSNNKYAASSYLSLTPEQWKSHKSYSCQVTHEGSTVEKTVAPTECS
notes: Fully human anti-MUC-1 IgG1 with one anti-human CD40 VHH fused by a 15 aa GS linker to the C-terminus of each heavy chain; also called Anti MUC-1 × CD40; anti MUC-1 × hCD40 A02
Consider B1, for which the binding result was “no binding”.
